Data: the supplement of paper PMC6757056
± gives the standard deviation of the averaged measurements.

B1: library; a variant is named by its letters at N, in order (parent)
chain: GCUGUCACCGGUGCUUGGUACGUUAUAUUCAGCCGGUCUGAUGAGUCUNNNNNNAGACGAAACAGC

Columns and labels:
(6R,S)-folinic acid [1] = variants of: B1; experiment: normalized RNA/DNA level without ligand (relative to sTRSVctl = 100) (log10 (% of sTRSVctl)); HEK293T overexpressing SLC46A1; higher = less ribozyme self-cleavage, higher mRNA level; conditions: without (6R,S)-folinic acid; ligand present: no
Method in brief: (§1)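 Total RNA, extracted with EDTA 72 h after HEK293T cells were transfected with 4 µg per 6-well well of reporter-linked ribozyme switch library plasmids, was reverse-transcribed, amplified, barcoded and sequenced. Ligand, if used, was added 1 h before transfection. RNA level was derived from RNA reads divided by DNA reads and normalized to a spiked-in non-cleaving sequence or to the top sequences. This was multiplied by 100 and log10-transformed, with the top set of 25 sequences and a ≥100 DNA read minimum.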

(6R,S)-folinic acid [2] = variants of: B1; experiment: normalized RNA/DNA level with ligand (relative to sTRSVctl = 100) (log10 (% of sTRSVctl)); HEK293T overexpressing SLC46A1; ligand concentration (+) RNA-Seq: 6 mM; higher = less ribozyme self-cleavage, higher mRNA level; conditions: with (6R,S)-folinic acid; ligand present: yes
Method in brief: as §1

Variant	normalized RNA/DNA level without ligand (log10) ((6R,S)-folinic acid [1])	normalized RNA/DNA level with ligand (log10) ((6R,S)-folinic acid [2])
GCUGUCACCGGUGCUUGGUACGUUAUAUUCAGCCGGUCUGAUGAGUCUAGAAGAAGACGAAACAGC	1.949 ± 0.0067	2.02 ± 0.025
GCUGUCACCGGUGCUUGGUACGUUAUAUUCAGCCGGUCUGAUGAGUCUAGAAGGAGACGAAACAGC	1.931 ± 0.019	2.01 ± 0.037
GCUGUCACCGGUGCUUGGUACGUUAUAUUCAGCCGGUCUGAUGAGUCUAGAAGCAGACGAAACAGC	2.004 ± 0.0023	2.049 ± 0.016
GCUGUCACCGGUGCUUGGUACGUUAUAUUCAGCCGGUCUGAUGAGUCUCGAACGAGACGAAACAGC	2.0268 ± 0.0006	2.024 ± 0.0057
GCUGUCACCGGUGCUUGGUACGUUAUAUUCAGCCGGUCUGAUGAGUCUCGAACUAGACGAAACAGC	2 ± 0.023	2 ± 0.05
GCUGUCACCGGUGCUUGGUACGUUAUAUUCAGCCGGUCUGAUGAGUCUGGAAGGAGACGAAACAGC	1.95 ± 0.022	2.03 ± 0.04
GCUGUCACCGGUGCUUGGUACGUUAUAUUCAGCCGGUCUGAUGAGUCUGGAAGCAGACGAAACAGC	1.9092 ± 0.0019	1.99 ± 0.044
GCUGUCACCGGUGCUUGGUACGUUAUAUUCAGCCGGUCUGAUGAGUCUAGAACGAGACGAAACAGC	1.954 ± 0.0051	2.018 ± 0.016
GCUGUCACCGGUGCUUGGUACGUUAUAUUCAGCCGGUCUGAUGAGUCUAGAACCAGACGAAACAGC	2.02 ± 0.0077	2.01 ± 0.049
GCUGUCACCGGUGCUUGGUACGUUAUAUUCAGCCGGUCUGAUGAGUCUAGAACAAGACGAAACAGC	2.007 ± 0.0027	2.02 ± 0.045
GCUGUCACCGGUGCUUGGUACGUUAUAUUCAGCCGGUCUGAUGAGUCUAGAACUAGACGAAACAGC	2.036 ± 0.0042	2.075 ± 0.0036
GCUGUCACCGGUGCUUGGUACGUUAUAUUCAGCCGGUCUGAUGAGUCUGGAACCAGACGAAACAGC	2.036 ± 0.01	2.04 ± 0.06
GCUGUCACCGGUGCUUGGUACGUUAUAUUCAGCCGGUCUGAUGAGUCUGGAACUAGACGAAACAGC	2.035 ± 0.01	2.029 ± 0.016
GCUGUCACCGGUGCUUGGUACGUUAUAUUCAGCCGGUCUGAUGAGUCUGGAACAAGACGAAACAGC	2.0061 ± 0.00047	2.02 ± 0.043
GCUGUCACCGGUGCUUGGUACGUUAUAUUCAGCCGGUCUGAUGAGUCUGGAACGAGACGAAACAGC	2 ± 0.027	2.03 ± 0.032
GCUGUCACCGGUGCUUGGUACGUUAUAUUCAGCCGGUCUGAUGAGUCUUGAAGCAGACGAAACAGC	1.964 ± 0.018	2 ± 0.021
GCUGUCACCGGUGCUUGGUACGUUAUAUUCAGCCGGUCUGAUGAGUCUUGAACAAGACGAAACAGC	1.9795 ± 0.00092	2.01 ± 0.037
GCUGUCACCGGUGCUUGGUACGUUAUAUUCAGCCGGUCUGAUGAGUCUUGAACCAGACGAAACAGC	2.011 ± 0.0035	2 ± 0.031
GCUGUCACCGGUGCUUGGUACGUUAUAUUCAGCCGGUCUGAUGAGUCUCGAAGCAGACGAAACAGC	2.02 ± 0.033	2.04 ± 0.042
GCUGUCACCGGUGCUUGGUACGUUAUAUUCAGCCGGUCUGAUGAGUCUCGAAGAAGACGAAACAGC	1.986 ± 0.0023	2.01 ± 0.049
GCUGUCACCGGUGCUUGGUACGUUAUAUUCAGCCGGUCUGAUGAGUCUCGAAGGAGACGAAACAGC	1.859 ± 0.012	1.94 ± 0.022
